# ± gives the uncertainty stated by the source.
# Assay: protein stability index of a GFP-peptide fusion (yeast GPS) (PSI 1-4); higher = more stable; sorted into four equal gates, so the index is relative within each strain
# Details: doa10∆
# Procedure, shortened: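 The protein stability index combines read frequencies across sorting gates, each weighted by its gate number and then summed. To obtain those frequencies, a pooled yeast library of GFP fusions to tiled 17-residue yeast protein peptides, on a plasmid also expressing Cherry, was grown to mid-log phase in leucine-free medium. The cells were sorted into four equal gates by GFP/Cherry ratio before plasmid amplification by PCR and Illumina sequencing.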
row,Sequence,protein stability index
1,ILSLIEEAAGTKMFEDR [SMC2],3.27 ± 0.11
2,IMDNFLERTAIELKTDW [RPN1],3 ± 0.2
3,IMYQQMLKYRRLFIGDQ [SNF2],1.45 ± 0.052
4,INDKRANLMLVMLRLLL [SRB4],1.6 ± 0.039
5,INGWKFESLPLKSAENS [SWP82],2.92 ± 0.067
6,INKNSKIALREYINNCK [POP4],2.04 ± 0.23
7,INYAFSMDEEFKNMDCI [SIR3],3.21 ± 0.051
8,IPDFRSSEGFYSKIKHL [SIR2],2.33 ± 0.13
9,IPGEYITYALSGYVRSR [RPS21B],2.42 ± 0.059
10,IPKLKPAPINSLSRDFV [SNU114],2.92 ± 0.052
11,IPPTFDKGAVGPNNFIW [MED4],3.22 ± 0.091
12,IPSGNVWNYTFMGTAFN [PRP8],2.76 ± 0.11
13,IPSKNTPDASKPSFSFG [YLR335W/NUP2],2.51 ± 0.15
14,IPVNKRRGAHGSELSSK [SIR3],3 ± 0.15
15,IQFLTIGAGVPSLEVAS [FAS1],1.18 ± 0.037
16,IQIFRAHLWQKIHESIV [PRP8],2.4 ± 0.098
17,IQISKLHYTPIEDLWQF [RPC82],2.26 ± 0.12
18,IQLIKILNSHFDALRSL [YJL041W/NSP1],2.54 ± 0.047
19,IQLNGGSISEKVDWARE [RPL3],2.66 ± 0.29
20,IQQLHSVLNPFLLRRVK [ISW2],2.06 ± 0.061
21,IQQVVEYADNDEDKFKK [PRP28],3.06 ± 0.072
22,IQSAESIKSQKEEISDQ [SWI3],2.4 ± 0.26
23,IQTKEQVSINSNKILVY [YIL149C/MLP2],2.21 ± 0.076
24,IRARIPFYGSYTETDPA [SRP54],2.96 ± 0.092
25,IRGAVGNSEAIPGLSAG [RTT102],3.23 ± 0.057
26,IRNVIMSASNANDFQLT [SRB8],2.06 ± 0.048

row,Sequence,protein stability index
1,IRPLSKPMTAYARADTH [RRP6],2.74 ± 0.08
2,IRQAIAKGLVAYHQKYV [RPS16A],1.21 ± 0.096
3,IRRYCDVVAHRQLAGAI [DIS3],1.91 ± 0.077
4,IRTQVNTGGESVVKKED [RGR1],3.32 ± 0.18
5,IRVTNSFALPFEEDEKN [RPN8],2.67 ± 0.062
6,ISDDDDSALRYSILGDR [POP4],3.12 ± 0.066
7,ISIDSWPTTHKYPLGHF [DIS3],2.38 ± 0.077
8,ISIFSTPGSVSLSAYNL [PRP8],2.61 ± 0.24
9,ISKQRTFAVILFLIIQC [YMR129W/POM152],1.38 ± 0.051
10,ISLYLLNLLSQNNTTKF [RPN12],1.53 ± 0.044
11,ISSGLLYLQDSNDKFVH [SRB8],1.94 ± 0.087
12,ISTRERDYLVDTLKLRE [RRP6],3.07 ± 0.076
13,ISVGLYDTTPLLDTNSL [SKI6],2.57 ± 0.074
14,ISVTRQVVLGGTSKYLI [SMC2],2.65 ± 0.074
15,ISYTSHIEGVVILKKNP [RPN1],2.57 ± 0.059
16,ITKDHKVLARQQLQVLA [FAS2],1.29 ± 0.044
17,ITKLHLDKDRKALIQRK [RPL26A],2.1 ± 0.13
18,ITKLLEINLSKIFQTTP [YCS4],2.58 ± 0.054
19,ITQIVEKDFCTSCLQNN [SRB8],2.35 ± 0.065
20,ITSLYALIRRDFTLIPR [CDC53],2.95 ± 0.08
21,ITVVLGVNGYIWLRKTS [RRP4],1.61 ± 0.2
22,ITYTPVRHGRAGATTSR [RPS15],2.28 ± 0.11
23,IVDKYIGESARIIREMF [RPT4],2.5 ± 0.14
24,IVGKSNVLVTMPVAPTM [YMR129W/POM152],2.66 ± 0.12
25,IVGPDLAVLALVIVKKG [RPS6A],1.26 ± 0.035
26,IVPLTEGDIQVLKSYGA [RPT1],3.14 ± 0.09

row,Sequence,protein stability index
1,IVPVISTIENVLFYIGR [COB],1.85 ± 0.059
2,IVQELLDKNLIKLVKQN [RPC34],1.97 ± 0.057
3,IVSFIVNCFHEDTELYQ [YJL039C/NUP192],1.62 ± 0.051
4,IYEKLKNYLKNYILNFK [CDC53],2.44 ± 0.063
5,IYEVDITVHAPLLPIVE [SNU114],2.32 ± 0.056
6,IYKRGQAGVTKASVTIV [SMC2],1.61 ± 0.093
7,IYLLFQSSGKLKEYLDL [YDL116W/NUP84],2.51 ± 0.051
8,IYSPLHSFIKMLQMKGK [SIR2],2.1 ± 0.064
9,KADDDSVTIISAGNDKM [ASC1],3.24 ± 0.091
10,KAEIPPEYAKVGDFLLQ [SIN4],1.52 ± 0.079
11,KAKAQAQAQAQAQAQVY [PGD1],2.96 ± 0.11
12,KAKFTSLAVRSLQDRSS [YCS4],2.15 ± 0.042
13,KALPMLEQVEFEKNTIL [MED4],3.02 ± 0.07
14,KANIFQVIKNEVCAKMP [SSN2],2.7 ± 0.14
15,KAPKIQRLVTPQRLQRK [RPS6A],2.77 ± 0.06
16,KARTNLHQHVVLKCLKS [RPC34],2.91 ± 0.19
17,KASLLLHVLVAHKLKKS [FAS2],1.38 ± 0.055
18,KATAAKKAVVKGTNGKK [RPL25],3.3 ± 0.15
19,KCFDDIEPHIFDQLIEW [YCG1],3.2 ± 0.075
20,KCIKYSEKLITKYFEPT [ECM29],2.63 ± 0.12
21,KCIPKKGTVFQFEIPIS [POP4],1.44 ± 0.16
22,KCSTRGLSTDHTTQIVN [YML103C/NUP188],2.9 ± 0.079
23,KDDRFVPVRKFKGNNGV [RPN2],2.02 ± 0.07
24,KDEPVQNDILQESFINT [FAS2],2.94 ± 0.089
25,KDERDTWIHSEIEELKS [SMC3],3.16 ± 0.18
26,KDKGVYVVTSDEHPKTL [SIR2],2.78 ± 0.076

row,Sequence,protein stability index
1,KDNDKNLKFLKNKDSLV [SRB4],3.48 ± 0.094
2,KDNGMLIIDGQIIFGVV [RPO21],1.95 ± 0.12
3,KDNVEHLVMRAISLGLL [RPN9],2.43 ± 0.075
4,KDRISSCSSKEKTLVLE [SMC4],2.58 ± 0.097
5,KDTTGPKAISNFLIKLS [YCS4],2.09 ± 0.11
6,KEDKSEAIDGNGEIKGE [SNF2],2.23 ± 0.049
7,KEIDPSQTTQLAGMDVE [FAS2],3.14 ± 0.086
8,KEKKELQMRLKESEISH [YIL149C/MLP2],2.6 ± 0.22
9,KELELERKEREDFQKRQ [SWI1],3.25 ± 0.076
10,KELTRIPGEEVEETEVP [MED4],3.21 ± 0.16
11,KENYPWELYTDFNEIVQ [POP3],2.42 ± 0.25
12,KEQENITIQDLLFPKST [DPB4],3.05 ± 0.1
13,KERISVAAASKILSNLV [PRE2],2.75 ± 0.059
14,KERLTKEAAAVAEGKSK [RPL8A],3.53 ± 0.16
15,KERSDGKRHIFDVNTLC [CDC53],1.27 ± 0.052
16,KESAVISKQKSKLDYIF [SMC1],3.04 ± 0.18
17,KESDDPSIPLVIIRRLK [POP1],3.12 ± 0.1
18,KEYISRLWHTLKYYQDL [SNF5],1.47 ± 0.068
19,KFDIIIVDTSGRHHQEE [SRP54],3.01 ± 0.07
20,KFFHNGMIYNKLFVSKE [FAS2],2.87 ± 0.089
21,KFFRVKYENKISTVIEV [SMC3],1.35 ± 0.13
22,KFHKREVVEAVTVVDTP [RPL3],1.44 ± 0.075
23,KFKRHHSDRYHRVAENW [RPL32],3 ± 0.072
24,KFLQEFINLLLNCCGSV [IRR1],2.07 ± 0.11
25,KFPPPTPLLENISISTS [BRR2],1.83 ± 0.054
26,KGAGLSMGTMICGYTRK [PRE2],1.64 ± 0.16
